# Experimental data as given in US20240279325A1 (Chugai, published 2024).
# Positions count from the first letter of the chain named.
# B1: IL6R-BP504/IL6R-L (antibody, human IgG1, kappa, name in EU numbering)
# heavy: QVQLQESGPGLVKPSETLSLTCAVSGHSISHDHAWSWVRQPPGEGLEWIGFISYSGITNYNPSLQGRVTISRDNSKNTLYLQMNSLRAEDTAVYYCARSLARTTAMDYWGEGTLVTVSSASTKGPSVFPLAPSSKSTSGGTAALGCLVKDYFPEPVTVSWNSGALTSGVHTFPAVLQSSGLYSLSSVVTVPSSSLGTQTYICNVNHKPSNTKVDKKVEPKSCDKTHTCPPCPAPDLLGDDSVFLFPPKPKDTLMISRTPEVTCVVIDVAEEDGPVKFNWYVDGVEVHNAKTKPREEQYNSTYRVVSVLTVLHQDWLNGKEYKCKVSNKALPAPIEKTISKAKGQPREPQVYTLPPSRDELTKNQVSLTCLVKGFYPSDIAVEWESNGQPENNYKTTPPVLDSDGSFFLYSKLTVDKSRWQQGNVFSCSVMHEALHNHYTQESLSLSP
# light: not shown
# notes: copies: 2 + 2
# B2: IL6R-BP210/IL6R-L (antibody, human IgG1, kappa, name in EU numbering)
# heavy: B1 heavy with D235E, I266V, A269S, E270D, P274E, A332R
# light: not shown
# notes: EU numbering; copies: 2 + 2
# B3: IL6R-BP509/IL6R-L (antibody, human IgG1, kappa, name in EU numbering)
# heavy: B1 heavy with P274D, Y298D
# light: not shown
# notes: copies: 2 + 2
# B4: IL6R-BP238/IL6R-L (antibody, human IgG1, kappa, name in EU numbering)
# heavy: B1 heavy with L236Y, I266V, A269S, E270D, P274E, Y298D, K328A, A332R
# light: not shown
# notes: EU numbering; copies: 2 + 2
# B5: IL6R-BP456/IL6R-L (antibody, human IgG1, kappa, name in EU numbering)
# heavy: B1 heavy with I266V, P274E, A332R, P398M
# light: not shown
# notes: copies: 2 + 2
# B6: IL6R-BP184/IL6R-L (antibody, human IgG1, kappa, name in EU numbering)
# heavy: B1 heavy with D239G, I266V, A269S, E270H, P274E, A332K
# light: not shown
# notes: EU numbering; copies: 2 + 2
# B7: IL6R-BP214/IL6R-L (antibody, human IgG1, kappa, name in EU numbering)
# heavy: B1 heavy with L236Y, I266V, A269S, E270H, G273P, P274E, Y298D, K328D, A332K
# light: not shown
# notes: EU numbering; copies: 2 + 2
# B8: IL6R-BP193/IL6R-L (antibody, human IgG1, kappa, name in EU numbering)
# heavy: B1 heavy with D239G, I266V, A269S, E270D, P274E, A332K
# light: not shown
# notes: EU numbering; copies: 2 + 2
# B9: IL6R-BP451/IL6R-L (antibody, human IgG1, kappa, name in EU numbering)
# heavy: B1 heavy with I266V, P274E, A332R, P398G
# light: not shown
# notes: copies: 2 + 2
# B10: IL6R-BP206/IL6R-L (antibody, human IgG1, kappa, name in EU numbering)
# heavy: B1 heavy with D239G, I266V, A269S, E270H, P274E, A332R
# light: not shown
# notes: EU numbering; copies: 2 + 2
# B11: IL6R-BP488/IL6R-L (antibody, human IgG1, kappa, name in EU numbering)
# heavy: B1 heavy with P274E, Y298D, A332R
# light: not shown
# notes: copies: 2 + 2
# B12: IL6R-BP186/IL6R-L (antibody, human IgG1, kappa, name in EU numbering)
# heavy: B1 heavy with L236Y, I266V, A269S, E270H, P274E, Y298D, K328A, A332K
# light: not shown
# notes: EU numbering; copies: 2 + 2
# B13: IL6R-BP199/IL6R-L (antibody, human IgG1, kappa, name in EU numbering)
# heavy: B1 heavy with D239G, I266V, A269S, E270H, G273P, P274E, K328D, A332R
# light: not shown
# notes: EU numbering; copies: 2 + 2
# B14: IL6R-BP243/IL6R-L (antibody, human IgG1, kappa, name in EU numbering)
# heavy: B1 heavy with L236Y, I266V, A269S, E270D, P274E, A332R
# light: not shown
# notes: EU numbering; copies: 2 + 2
# How the values were obtained:
# [1] = biological target: T1, FcγRIIa type H (allotype H131) extracellular domain with C-terminal His tag (human, UniProt P12318 34-217); assay: SPR (Biacore), antibody captured, FcγR as analyte
# T1 construct: extracellular domain; also called FcγRIIaH; FcγRIIa H type
# T1 sequence (looked up): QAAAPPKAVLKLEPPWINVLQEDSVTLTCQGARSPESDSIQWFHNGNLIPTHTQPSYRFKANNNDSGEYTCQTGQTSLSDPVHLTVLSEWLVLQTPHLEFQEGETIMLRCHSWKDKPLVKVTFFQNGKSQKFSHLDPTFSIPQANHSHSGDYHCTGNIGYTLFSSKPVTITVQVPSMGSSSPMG
# [2] = biological target: T2, FcγRIIb extracellular domain with C-terminal His tag (human, UniProt P31994 43-217); assay: SPR; KD of IL6R-B3/IL6R-L divided by KD of the variant
# T2 construct: extracellular domain
# T2 sequence (looked up): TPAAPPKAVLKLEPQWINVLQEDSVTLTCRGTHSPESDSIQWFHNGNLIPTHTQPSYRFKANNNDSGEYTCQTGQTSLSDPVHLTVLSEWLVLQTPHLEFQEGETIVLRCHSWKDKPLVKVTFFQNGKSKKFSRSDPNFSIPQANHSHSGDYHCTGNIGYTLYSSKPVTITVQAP
# [3] = biological target: T3, FcγRIIa type R (allotype R131) extracellular domain with C-terminal His tag (human, UniProt P12318 34-217); assay: as above
# T3 construct: extracellular domain; also called FcγRIIaR; FcγRIIa R type
# T3 sequence (looked up): T1 sequence (looked up) with H134R
# [4] = biological target: T2, FcγRIIb extracellular domain with …; assay: SPR; KD for FcγRIIaH divided by KD for FcγRIIb
# [5] = biological target: T2, FcγRIIb extracellular domain with …; assay: SPR; KD for FcγRIIaR divided by KD for FcγRIIb
# [6] = biological target: T4, human FcγRIIa type H (allotype H131) extracellular domain with C-terminal His tag (human, UniProt P12318 34-217); assay: SPR (Biacore), antibody captured, FcγR analyte
# T4 construct: extracellular domain; also called FcγRIIaH; not shown: His tag at the C terminus
# T4 sequence (looked up): T1 sequence (looked up)
# [7] = biological target: T5, human FcγRIa extracellular domain with C-terminal His tag (human, UniProt P12314 16-292); assay: SPR (Biacore), antibody captured, FcγR analyte
# T5 construct: not shown: His tag at the C terminus
# [8] = biological target: T4, human FcγRIIa type H (allotype H131) …; assay: SPR (Biacore), antibody captured, FcγR analyte; remark: listed apart in the source
# [9] = biological target: T6, human FcγRIIa type H (allotype H131) extracellular domain with C-terminal His tag (human, UniProt P12318 34-217); assay: SPR (Biacore), captured antibody, FcγR analyte
# T6 construct: also called FcγRIIaH
# T6 sequence: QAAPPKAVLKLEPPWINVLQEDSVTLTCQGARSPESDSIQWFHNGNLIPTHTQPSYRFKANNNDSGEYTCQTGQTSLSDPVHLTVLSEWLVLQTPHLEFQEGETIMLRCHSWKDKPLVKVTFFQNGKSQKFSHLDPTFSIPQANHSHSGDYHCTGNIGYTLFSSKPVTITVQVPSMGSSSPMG
# [10] = biological target: T7, human FcγRIIa type R (allotype R131) extracellular domain with C-terminal His tag (human, UniProt P12318 34-217); assay: SPR (Biacore), antibody captured, FcγR analyte
# T7 construct: extracellular domain; also called FcγRIIaR; not shown: His tag at the C terminus
# T7 sequence (looked up): T1 sequence (looked up) with H134R
# T5 sequence (P12314 16-292): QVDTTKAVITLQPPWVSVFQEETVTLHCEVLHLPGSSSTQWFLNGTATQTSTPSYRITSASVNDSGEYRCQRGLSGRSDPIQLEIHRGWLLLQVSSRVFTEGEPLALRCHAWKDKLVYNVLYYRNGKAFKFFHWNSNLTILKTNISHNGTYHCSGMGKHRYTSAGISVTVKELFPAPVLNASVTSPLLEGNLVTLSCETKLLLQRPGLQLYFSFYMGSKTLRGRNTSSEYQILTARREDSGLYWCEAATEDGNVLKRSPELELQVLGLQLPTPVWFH
binder,measurement,setting,value
B1,Kd,[1],15 µM
same,KD(IIb) OF PARENT POLYPEPTIDE/KD(IIb) OF ALTERED POLYPEPTIDE,[2],127
same,KD(IIaR) OF PARENT POLYPEPTIDE/KD(IIaR) OF ALTERED POLYPEPTIDE,[3],2.4
same,KD(IIaH)/KD(IIb),[4],658
same,KD(IIaR)/KD(IIb),[5],18.5
B2,Kd,[6],95 µM
same,Kd,[7],0.055 µM
B3,KD(IIb) OF PARENT POLYPEPTIDE/KD(IIb) OF ALTERED POLYPEPTIDE,[2],174
same,KD(IIaR) OF PARENT POLYPEPTIDE/KD(IIaR) OF ALTERED POLYPEPTIDE,[3],2.1
same,KD(IIaH)/KD(IIb),[4],444
same,KD(IIaR)/KD(IIb),[5],29.2
B4,Kd,[8],7 µM
B5,Kd,[9],2 µM
B6,Kd,[10],1.3 µM
B7,Kd,[6],92 µM
B8,Kd,[7],0.0053 µM
B9,Kd,[9],2 µM
B10,Kd,[10],5.1 µM
B11,Kd,[1],1.5 µM
same,KD(IIb) OF PARENT POLYPEPTIDE/KD(IIb) OF ALTERED POLYPEPTIDE,[2],1680
same,KD(IIaR) OF PARENT POLYPEPTIDE/KD(IIaR) OF ALTERED POLYPEPTIDE,[3],14.8
same,KD(IIaH)/KD(IIb),[4],865
same,KD(IIaR)/KD(IIb),[5],40.1
B12,Kd,[6],93 µM
B13,Kd,[7],0.0054 µM
B14,Kd,[8],6 µM
